Reference: IntAct's records for PubMed 12445118

B1: Coronatine-insensitive protein 1 (Arabidopsis thaliana (Mouse-ear cress)), O04197 (parent)
chain: MEDPDIKRCKLSCVATVDDVIEQVMTYITDPKDRDSASLVCRRWFKIDSETREHVTMALCYTATPDRLSRRFPNLRSLKLKGKPRAAMFNLIPENWGGYVTPWVTEISNNLRQLKSVHFRRMIVSDLDLDRLAKARADDLETLKLDKCSGFTTDGLLSIVTHCRKIKTLLMEESSFSEKDGKWLHELAQHNTSLEVLNFYMTEFAKISPKDLETIARNCRSLVSVKVGDFEILELVGFFKAAANLEEFCGGSLNEDIGMPEKYMNLVFPRKLCRLGLSYMGPNEMPILFPFAAQIRKLDLLYALLETEDHCTLIQKCPNLEVLETRNVIGDRGLEVLAQYCKQLKRLRIERGADEQGMEDEEGLVSQRGLIALAQGCQELEYMAVYVSDITNESLESIGTYLKNLCDFRLVLLDREERITDLPLDNGVRSLLIGCKKLRRFAFYLRQGGLTDLGLSYIGQYSPNVRWMLLGYVGESDEGLMEFSRGCPNLQKLEMRGCCFSERAIAAAVTKLPSLRYLWVQGYRASMTGQDLMQMARPYWNIELIPSRRVPEVNQQGEIREMEHPAHILAYYSLAGQRTDCPTTVRVLKEPI
B2: Coronatine-insensitive protein 1 (Arabidopsis thaliana (Mouse-ear cress)), O04197 (parent)
chain: B1 chain
partner: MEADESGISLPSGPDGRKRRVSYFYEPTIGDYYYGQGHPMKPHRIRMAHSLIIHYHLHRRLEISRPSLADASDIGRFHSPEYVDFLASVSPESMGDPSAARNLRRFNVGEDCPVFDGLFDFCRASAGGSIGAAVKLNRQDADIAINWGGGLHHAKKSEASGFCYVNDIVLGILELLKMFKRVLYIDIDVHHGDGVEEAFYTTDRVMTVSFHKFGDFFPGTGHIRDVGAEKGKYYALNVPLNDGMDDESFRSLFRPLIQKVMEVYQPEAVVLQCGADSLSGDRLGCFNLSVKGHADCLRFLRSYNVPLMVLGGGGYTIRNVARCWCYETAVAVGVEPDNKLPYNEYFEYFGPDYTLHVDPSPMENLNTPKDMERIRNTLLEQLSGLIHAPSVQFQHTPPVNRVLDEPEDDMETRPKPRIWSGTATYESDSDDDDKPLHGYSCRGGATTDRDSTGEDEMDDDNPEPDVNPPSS

Variants of: B1
Settings: with rbs3b_arath RBCS-3B

Row | effect of a mutation on the interaction | Variant
1 | decreasing interaction | L245F
2 | decreasing interaction | W44A

Variants of: B1
Settings: with skp1a_arath SKP1A

Row | effect of a mutation on the interaction | Variant
3 | decreasing interaction | W44A

Variants of: B1
Settings: with skp1b_arath SKP1B

Row | effect of a mutation on the interaction | Variant
4 | decreasing interaction | W44A

Variants of: B2
Settings: with hda6_arath HDA6, Q9FML2

Row | effect of a mutation on the interaction | Variant
5 | decreasing interaction | L245F
6 | decreasing interaction | W44A
